According to the nanobody polyreactivity screen of Harvey et al. (2022):

Experiment: yeast display, Sf9 membrane polyspecificity reagent, FACS + sequencing; frameworks hold sequencing errors
Outline: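 Using colony PCR, genes from sorted yeast display clones were amplified, then sequenced on MiSeq at 2 × 250 and filtered by CDR length. The clones had been stained with 10% biotinylated, detergent-solubilized Sf9 membrane reagent for 1 hour at 4 °C and sorted by FACS into low and high (top ~1%) gates on anti-HA and streptavidin fluorescence. Polyreactivity labels come from the gate of origin.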

Sequence: QVQLVESGGGLVQAGGSLRLSCAASGLIFWYNAMGWYRQAPGKEREFVAAITSDGGRTYYADSVKGRFTISRDNAKNTVYLQMNSLKPEDTAVYYCTARGYGYLGRKGGYSYGYYYWGQGTQVTVSS
- polyreactivity (PSR sort gate): low polyreactivity

Sequence: QVQLVESGGGLVQAGGSLRLSCAASGLIFWYYAMGWYRQAPGKERELVATISWSGGSTYYADSVKGRFTISRDNAKNTVYLQMNSLKPEDTAVYYCAAVGFRAYVARGYWYYYWGQGTQVTVSS
- polyreactivity (PSR sort gate): high polyreactivity

Sequence: QVQLVESGGGLVQAGGSLRLSCAASGLIFWYYTMGWYRQAPGKESELVAAITIGGSTYYADSVKGRFTISRDNAKNTVYLQMNSLKPEDTAVYYCNTRRGRSPGGRYEYDYWGQGTQVTVSS
- polyreactivity (PSR sort gate): low polyreactivity

Sequence: QVQLVESGGGLVQAGGSLRLSCAASGLIFYDNMGWYRPAPGKERELVAAISSSGGSTSYADSVKGRFTISRDNAKNTVYLQMNSLKPEDTAVYYCAARLVYEWRRLDYFIAWDYWGQGTQVTVSS
- polyreactivity (PSR sort gate): low polyreactivity

Sequence: QVQLVESGGGLVQAGGSLRLSCAASGLIFYDNMGWYRQAPGKERELLAAISSSGGSTSYADSVKGRFTISRDNAKITVSLQMNCLKPEDTGVYYCAADSYPAYLGFVGFDYWGQGTQVTVSS
- polyreactivity (PSR sort gate): low polyreactivity

Sequence: QVQLVESGGGLVQAGGSLRLSCAASGLIFYDNMGWYRQAPGKERELVAAISSSGGSTSYADSVKGRFTISRDNAKNTVYLQMNSLKPEDTAVYYCAADSYPAYLGFVGFDYWGQGTQVNVSS
- polyreactivity (PSR sort gate): low polyreactivity

Sequence: QVQLVESGGGLVQAGGSLRLSCAASGLIFYGNAMGWYRQAPGKERELVADITGSSVRTYYADSVKGRFTISRDNAKNTDYLQMNSLKPEDTAVYYCAATYGYLYTGLSRYDYWGQGTQVTVSS
- polyreactivity (PSR sort gate): low polyreactivity

Sequence: QVQLVESGGGLVQAGGSLRLSCAASGLIFYGYAMGWYRQAPGKERELVAAISSGGSTNYADSVKGRFTISRDNAKNTVYLQMNSLKPEDTAVYYCAAKPIFYRTILYYYWGQGTQVTVSS
- polyreactivity (PSR sort gate): high polyreactivity

Sequence: QVQLVESGGGLVQAGGSLRLSCAASGLIFYKYAKGWYRQAPGKERELVAAISRGDNTYYADSVKGRFTISRDNAKNTVYLQMNSLKPEDTAVYYCAAYRWIYQSQYQGYWLDYWGQGTQVTVSS
- polyreactivity (PSR sort gate): high polyreactivity

Sequence: QVQLVESGGGLVQAGGSLRLSCAASGLIFYKYAMGWYRQAPGKERELVAAIRWSGGSTYYADSVKGRFTISRDNAKNTVYLQMNSLKPEDTAVYYCAALSWNHQYEYWGQGTQVTVSS
- polyreactivity (PSR sort gate): high polyreactivity

Sequence: QVQLVESGGGLVQAGGSLRLSCAASGLIFYLYAMGWYRQQPGKERELVARMSRGGSTNYADSVKGRFTISRDNAKNTVYLQLNSLKPEDTAVDYCAADWFVSLGEMYYWGQGTQGTVSS
- polyreactivity (PSR sort gate): low polyreactivity

Sequence: QVQLVESGGGLVQAGGSLRLSCAASGLIFYPYAMGWYRQAPGKERELVAGISSSGDSTYYADSVKGRFTISRDNAKNTVYLEMNSLKPEDTAVYYCNADGWYFEYWGQGTHVTVSS
- polyreactivity (PSR sort gate): low polyreactivity

Sequence: QVQLVESGGGLVQAGGSLRLSCAASGLIFYRYAMGWYRQAPGKERELVAAISSGGSTYYADSVKGRFTISRDNAKNTVYLQMNSLKPEDTAVYYCADRTRVSPQIHIYRAYGYWGQGTQVTVSS
- polyreactivity (PSR sort gate): high polyreactivity

Sequence: QVQLVESGGGLVQAGGSLRLSCAASGLIFYRYAMGWYRQAPGKERELVAVISWIGCNTYYADSVKGRFTISRDNAKNTVYLQMNSLKPEDTAVYYCAVATGPVSYRRYYWGQGTQVTVSS
- polyreactivity (PSR sort gate): high polyreactivity

Sequence: QVQLVESGGGLVQAGGSLRLSCAASGLIFYSNAMGWYRQAPGKDRELVAAITTSGSSTYYADSVKGRFTISRDNAKNTVYIPMNSLKPEDTAVYYCATEWRSNYWGQGTQVTVSS
- polyreactivity (PSR sort gate): low polyreactivity

Sequence: QVQLVESGGGLVQAGGSLRLSCAASGLIFYTYAMGWYRQAPGIERELVATISKRDGGTYYADSVKGRFTISRDNAKNTVYLQMNSLKPEDTAVYYCDAERSYSYWAYDYWGQGTQVTVSS
- polyreactivity (PSR sort gate): high polyreactivity

Sequence: QVQLVESGGGLVQAGGSLRLSCAASGLIFYVYAMGWYRQAPGKERELVAAISFRGTSTYADSVKGRFTISRDNAKNTVYFQMNSLKPEDTAVYYCAVTGFDVLWPSLGGELDYWGQGTQVTVSS
- polyreactivity (PSR sort gate): low polyreactivity

Sequence: QVQLVESGGGLVQAGGSLRLSCAASGLIFYYNAMGWYRQAPGKERELVAAISSDGTTDYADSVKGRFTISRDNAKNTVYLQMNSLKPEDTAVYYCNADKAVKLSGYGRADYDYWGQGTQVTVSS
- polyreactivity (PSR sort gate): low polyreactivity

Sequence: QVQLVESGGGLVQAGGSLRLSCAASGLIFYYYAMGWYRQAPGKERELVAAITGSGGSTYYADSVKGRFTISRDNAKNTVYLQMNSLKPEDTAVYYCAADGIYTYEYWGQGTQVTVSS
- polyreactivity (PSR sort gate): low polyreactivity

Sequence: QVQLVESGGGLVQAGGSLRLSCAASGLIFYYYAMGWYRQAPGKERELVAAITTGGGTYYADSVKGRFTISRDNAKNTVYLQMNILKPEATAVFYCAVYYRSYWGYEYWGQGTQVTVSS
- polyreactivity (PSR sort gate): high polyreactivity

Sequence: QVQLVESGGGLVQAGGSLRLSCAASGLIIKWYAMGWYRQAPGKERELVAAITRTGGSTYYADSVKGRFTISRDNAKNTVYLQMNSLKPEDTAVYYCADRPVYFRYIAYYDWTPSFDFWGQGTQVTVSS
- polyreactivity (PSR sort gate): low polyreactivity

Sequence: QVQLVESGGGLVQAGGSLRLSCAASGLILANYAMGWYRQAPGKDRELVAAISSSGGSTYYADSVKGRFTISRDNAKNTVYLQMNSLKPEDTAVYYCAAYPLYRRRWTGDYWGQGTQVTVSS
- polyreactivity (PSR sort gate): high polyreactivity

Sequence: QVQLVESGGGLVQAGGSLRLSCAASGLILGYYAMGWYRQAPGKERELVATIRRGASTYYADSVKGRFTISRDNAKNTVYLQMNSLKPEDTAVYYCAADTERSLAGGMYYWGEGTQVTVSS
- polyreactivity (PSR sort gate): low polyreactivity

Sequence: QVQLVESGGGLVQAGGSLRLSCAASGLILNYYTMGSYRQAPGKERELVATISSSTGSTYYADSVKGRFTISRDNAKNTVYLQMNSLKPEDTAVYYCAADHWSYWQIYEYWGQGTQVTVSS
- polyreactivity (PSR sort gate): low polyreactivity

Sequence: QVQLVESGGGLVQAGGSLRLSCAASGLILVGNTMGWYRQAPGKERELVATITSGGRTYYADSVKGRFTISRDNAKNTVYLQMNSLKPEDTAVYYCAKRAFSYVGGQQDRKENYYYWGQGTQVTVSS
- polyreactivity (PSR sort gate): high polyreactivity

Sequence: QVQLVESGGGLVQAGGSLRLSCAASGLILVPNTMGWYRQAPGKARELVAAISYSGGGTYYADSVKGRFTISRDNAKNTVYLQMNSLKPEDTAVYYCAAYDKRESAPYGYWGQGTQVTVSS
- polyreactivity (PSR sort gate): low polyreactivity

Sequence: QVQLVESGGGLVQAGGSLRLSCAASGLILYYYTMGWYRQAPGKERELVAAINSGGNTYYADSVKGRFTISRDNAKNTVYLQMNSLKPEDTAVYYCNAYRVRYKRSYDYWGQGTQVTVSS
- polyreactivity (PSR sort gate): high polyreactivity

Sequence: QVQLVESGGGLVQAGGSLRLSCAASGLIRDGKVMGWYIQAPGKERELVAAINTSGGSTYYADSVKGRFTISRDNAKNTVYLQMNSLKPEDTAVYYCAARYPSDYDYWGQGTQVTVSS
- polyreactivity (PSR sort gate): low polyreactivity

Sequence: QVQLVESGGGLVQAGGSLRLSCAASGLIVGGYTMGWYRQAPGKERDLVAAIDSADSTYYADSVKGRFTISRDNAKNTVYLQMNSLKPEDTAVYYCATYWFYSGPAFSLRETGGVNYWGQGTQVTVSS
- polyreactivity (PSR sort gate): low polyreactivity

Sequence: QVQLVESGGGLVQAGGSLRLSCAASGLIYVTNAMGCYRQAPGKERELVAAITSVGSTNYADSVKGRFTISRDNAKNTVYLQMNSLKPEDTAVYYCAAGVIADQSIGPTWSGSEGDYWGQGTQVTVSS
- polyreactivity (PSR sort gate): low polyreactivity

Sequence: QVQLVESGGGLVQAGGSLRLSCAASGLNFDKNAMGWYRQAPGNERELLAAITRSSGTTYYADSVKGRFTISRDNAKNTVYLQMNSLKPEDTAVYYCAARFIWGYWGVGYYSWGQGTQVTVSS
- polyreactivity (PSR sort gate): low polyreactivity

Sequence: QVQLVESGGGLVQAGGSLRLSCAASGLNFGSNAMGWYRQAPGKERELVAAITWSGGSTYYADSVKGRFTISRDNAKNTVYLQMNSLKPEDTAVYYCAAKRWYRYYWGQGTQVTVSS
- polyreactivity (PSR sort gate): high polyreactivity

Sequence: QVQLVESGGGLVQAGGSLRLSCAASGLNFSEYAMGWYRQAPGKERELVAAIRSDGGSTYYADSVKGRFTISRDNAKNTVYLQMNSLKPEVTAVYYCNAPYRRSAKFRRYVYDYWGQGTQVTVSS
- polyreactivity (PSR sort gate): high polyreactivity

Sequence: QVQLVESGGGLVQAGGSLRLSCAASGLNFYRYPMGWNRQAPGKERELVAAITRNGGSTYYADSVKGRFTISRDNANNTVYLQMNSLKPEDIAVYYCAADLYSAVYFSRWSDYWGQGTQVTVSS
- polyreactivity (PSR sort gate): high polyreactivity

Sequence: QVQLVESGGGLVQAGGSLRLSCAASGLNFYYYAMGWYRQAPGKERELVATISSRGGSTNYADSVKGRFTISRDNAKNTVYLQMNSLKPEDTAVYYCAADRRARVWTYRSYDYWGQGTQVTVSS
- polyreactivity (PSR sort gate): high polyreactivity

Sequence: QVQLVESGGGLVQAGGSLRLSCAASGLNIRYYAMGWYRQAPGKERELVAAISYNGGSTYYADSVKGRFTISRDNAKNTVYLQMNSLKPEDTAVYYCAARLYGRYGYWGQGTQVTVSS
- polyreactivity (PSR sort gate): high polyreactivity

Sequence: QVQLVESGGGLVQAGGSLRLSCAASGLSLGVYTLGWYRQAPGKEREFVASINYGGGSTYYADSVKGRFTISRDNAKNTVYLQMNSLKPEDTAVYYCNARSRWGGTRLYSYDYWGQGTQVTVSS
- polyreactivity (PSR sort gate): low polyreactivity

Sequence: QVQLVESGGGLVQAGGSLRLSCAASGLTFAENAMGWYRQAPGKERELVAAISASGGSTYYADSVKGRFTISRDNAKNTVFLQMNSLKPEDTAVYYCATRVAFLWPRRDYDYWGQGTQVTVSS
- polyreactivity (PSR sort gate): low polyreactivity

Sequence: QVQLVESGGGLVQAGGSLRLSCAASGLTFAINTMGWYRQAPGKERELVAAITGSGGSTYYADSVKGRFTISRDNAKNTVYLQMNSLKPEDTAVYYCAAELLYVQGYAMDYWGQGTQVTVSS
- polyreactivity (PSR sort gate): low polyreactivity

Sequence: QVQLVESGGGLVQAGGSLRLSCAASGLTFAQYAMGWYRQAPGKERELVAAITSRGTNTYYADSVKGRFTISRDNAKNTVYLQMNSLKPEDTAVYYCNTYRARLGTTFIDYDYWGQGTQVTVSS
- polyreactivity (PSR sort gate): high polyreactivity

Sequence: QVQLVESGGGLVQAGGSLRLSCAASGLTFASNAMGWYRQAPGKERELVAAISWSDGSTYYADSVKGRFTISRDNAKNTVYLQMNSLKPEDTAVYYCAADPPGFRTYRVGYWGQGTQVTVSW
- polyreactivity (PSR sort gate): low polyreactivity

Sequence: QVQLVESGGGLVQAGGSLRLSCAASGLTFCRYVMGWYRQAPVKERELVAAITSGDSTNYADSVKGRFTISRDNAKNTVYLQTYSLITEVTAGYYCAADYWYRYYIGRNPWECITFDYWGQGTQVTVSS
- polyreactivity (PSR sort gate): low polyreactivity

Sequence: QVQLVESGGGLVQAGGSLRLSCAASGLTFDAYAMGWSRPAPGKERELVAAISWSGGSTYYAASVKGRFTISRDNAKNTVYLQMNSLKPEDTAVYYCNARYAQFRYWGQGTQVTVSS
- polyreactivity (PSR sort gate): high polyreactivity
